Results taken from patent US6310180.

What follows are substances tested against substrate IV, H-Lys-Ala-Arg-Val-Nle-Phe(p-NO2)-Glu-Ala-Nle-NH2 (HIV) (assay: not given).

Row | Substance | kcat/Km, hydrolysis of substrate IV
1 | [SPro^39, Abu^67,95]-HIV-1 PR (enzyme) | 119000 M^-1, S^-1
2 | recombinant HIV-1 PR (enzyme) | 121000 M^-1, S^-1
3 | [Leu-NHCH2-Thz^38-39, Abu^67,95]-HIV-1 PR (enzyme) | 36300 M^-1, S^-1
4 | [Ala^38, SPro^39, Abu^67,95]-HIV-1 PR (enzyme) | 98400 M^-1, S^-1

What follows are substances tested on substrate IV, H-Lys-Ala-Arg-Val-Nle-Phe(p-NO2)-Glu-Ala-Nle-NH2 (assay: steady-state kinetics of substrate IV hydrolysis at 22° C., RP HPLC; the filing calls Km the binding affinity).

Row | Substance | Km [µM]
5 | [Leu-NHCH2-Thz^38-39, Abu^67,95]-HIV-1 PR | 11.4
6 | [SPro^39, Abu^67,95]-HIV-1 PR | 11.9
7 | [Ala^38, SPro^39, Abu^67,95]-HIV-1 PR | 8.2
8 | recombinant HIV-1 PR | 10.1
